Values joined by “and” are separate entries in the source; they are usually repeats but may differ in a detail not shown here. Equal entries are not always repeated.
Target: the molecule itself
Test: SEC; SE-HPLC on Superdex 200 10/300 GL, 0.1 M Na2CO3 pH 10.3, 0.4 ml/min, detection at 280 nm; purified rCU after xanthine affinity chromatography and Source 15Q fractions

B1: recombinant canine uricase (enzyme, UniProt Q5FZI9 1-304, looked up)
chain: MAHYHNDYKKNDEVEFVRTGYGKDMVKVLHIQRDGKYHSIKEVATSVQLTLSSKKDYVYGDNSDIIPTDTIKNTVHVLAKFKGIKSIETFAMNICEHFLSSFNHVIRAQVYVEEVPWKRFEKNGVKHVHAFIHNPTGTHFCEVEQMRSGPPVIHSGIKDLKVLKTTQSGFEGFIKDQFTTLPEVKDRCFATKVYCKWRYHQGRDVDFEATWDTVRDIVLEKFAGPYDKGEYSPSVQKTLYDIQVHSLSRVPEMEDMEISLPNIHYFNIDMSKMGLINKEEVLLPLDNPYGRITGTAKRKLASKL
notes: Active form is a homo-tetramer; octamers and larger aggregates of the same chain were also seen and separated on Source 15Q; No tag is mentioned; Unmodified (not PEGylated) protein in the SE-HPLC analysis; also called rCU; wDU
  stoichiometry N: 4 and 8
